Experimental data reported in PMC9005958.

Tested on: T1, GST-rCtrA (Ehrlichia chaffeensis), ORF:1c7d897d
T1 sequence: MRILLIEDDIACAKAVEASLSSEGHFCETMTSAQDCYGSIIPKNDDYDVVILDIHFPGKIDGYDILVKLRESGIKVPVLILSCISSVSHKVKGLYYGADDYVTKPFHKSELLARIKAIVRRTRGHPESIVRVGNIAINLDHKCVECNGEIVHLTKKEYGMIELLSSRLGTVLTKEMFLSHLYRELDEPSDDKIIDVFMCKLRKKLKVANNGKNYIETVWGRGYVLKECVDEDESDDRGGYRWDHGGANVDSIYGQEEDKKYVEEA
Test: EMSA

In the case of “ATATAACCTAATAGTGACAAATAAATTAACAATAGTAGAAGTGTCATATAAAAGCAAGTCAGAATATAAATTTTTGTATAAAATATCGGTAACTTTTGTAAGGAAAATTTAATATATTACGTCAGGTAAGTAATAGCAAAAAAACTGGTTAAGTATAGTATCATGTGTAAAGGTGAGAAAAACAGCACTTATAAACTAGTCCCCCCCCCCCCCCTCTTATTGCTACATTCTTTTGCCACTATTTTTATTTACCTGCAGCA (double strand) [p28 promoter]”, the binding is reported as “no binding”.
